Laboratory results from the supplement of paper PMC9170038.

Each sequence was assayed on MS2 coat protein (assay: apparent KD of MS2 coat protein; higher = weaker reporter binding). Conditions: Eterna round: R107; input ligand: theophylline 2 mM.
Summary of the method: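 Titration buffer: 100 mM Tris-HCl pH 7.5, 80 mM KCl, 4 mM MgCl2, without or with constant ligand. Designed RNA switches transcribed on-chip from Illumina sequencing clusters received SNAP-549-labelled MS2 coat protein in twofold steps from 0.7 or 1.5 nM to 3 µM. Apparent KD is the median per design of fits to normalised cluster binding curves.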

Sequence	apparent KD of MS2 coat protein
GUAAAGUAAAGAAGGAGCGUCGAAAAUGGGUAAACAUGAGGAUCACCCAUGUAAAGGGAACGACAGGUAGGUCGCUUUAUUUUAC [AstromonsSSArgB#17]	284 nM
AUAACAUGAGGAUCACCCAUGUAUUGGUUACGAGGACCGGUACGGCCGCCACUCGUAUUUUGGUGGUAUUUUGUAUAUAUGAUAA [JR_SSTryptoA_Sub018]	36.5 nM
GGGCGAGUGGACCGGCGUGCUCCGCUCCGUCGAGGACCGGUACGGCCGCCACUCGACAUGAGGAUCACCCAUGUGCGAGCUCGCG [#1 Exclusion - Tryptophan A Attempt #14 (HarryS)]	82.4 nM
GGCGUGGUCGGAAGGAGCGACAUGAGGAUCACCCAUGUCUCCCGUUAUGGGAGUUCCUUAGGUCAGGUAGGUCGCCGACUGCGGC [#1 Exclusion - Arginine B Attempt #22 (Inspired by Omei)]	326 nM
AGCAACAAGUCGGCCGCCACUCAUUUAACAUGAGGAUCACCCAUGUGAAUAACAUGAUUGUAAUAGAGGACCGGGACAGUUGCAU [JR_SSTryptoB_Sub014]	103 nM

Same assay, conditions: Eterna round: R107; input ligand: tryptophan 2.4 mM

Sequence	apparent KD of MS2 coat protein
AAUAGACAUGAGGAUCACCCAUGUAUGGAAGGAGCGGUGAAUAAGCCAGGUAGGUCGCCAGUGUGAGGGUUAUCUAUGUAAUAAA [#19 Exclusion - Arginine A]	40.8 nM
AACCGAGGCUAUCCUCUAAGAAAAUGUGAUACCAGAAUAAUUUUAUUCCCUUGGCAGCAUGACAUGAGGAUCACCCAUGUGUCUU [SSTheo A #6]	138 nM
AGUGUUAUAACUGAUACCAGACUUGCGCUUAAACAUGAGGAUCACCCAUGUAAAAUGGUUGUCCCUUGGCAGCAGAAAAUACACA [JR_SSTheophyB_Sub006]	98.4 nM
AUAACAUGAGGAUCACCCAUGUAGAGUGAUACCAGACUACGUAAUGUCCCUUGGCAGCACAAGUAAAGUUACGAAUAAUGAUAGA [JR_SSTheophyA_Sub002]	137 nM
AGACAUGAGGAUCACCCAUGUAGUAUGGAUACCAGAUGUAGAUUAGUCCCUUGGCAGCUGUGGUGAAGUGAUGCAUUGCUCCUAG [Exclusion - Theophylline A (Freestyle 1)]	23.2 nM
UAUCUAACGAAGGAUACCAGUACAUGAGAGUACAUGAGGAUCACCCAUGUUAGAUACGGGUACCCUUGGCAGCCUCACCUACACC [theeternabot_sameState_MS2_Theo_B_11]	58 nM
ACUUGGUGGUGAUCCCUGCCAAGAGGUGAUACCAGCAUCGAAAGAUGCCCUUGGCAGCACCAACAUGAGGAUCACCCAUGUAAUA [(MT)''-(M)'-(T')-(Theo)-(Ms2)_Design1/22_6]	214 nM
UGUAUGGACUGAAGGAGCGCCUCAAAAUAGCAUGAGGAACACCCAUGCAAGGCGAAAGCCGGGCAGGUAGGUCGCAGUCCAUACU [ArgBX 3]	22.6 nM
ACAUGAAGAACAGCGGUGGGCGCGCUCGAUACCAGUACUUUGAUUUACCCUUGGCAGCGACAUGAGGAUCACCCAUGUGAGAUGA [XTheo A #1]	18.6 nM
GGAGGCCUUAGGGAUACCAGCUAAGUUGAGUACAUGAGGAUCACCCAUGUGUUCCCAGAGAGCCCUUGGCAGCCCUCAUCCGUUC [theeternabot_sameState_MS2_Theo_B_7]	12.4 nM
ACUAGGCUCGGAAACGAGCCUAGGACAGAAGGAGCGUGGAUUAACACAGGUAGGUCGCUGACAUGAGGAUCACCCAUGUAUUUAU [SSAA #5]	21.9 nM
GGGCGUGUGGUGCGGCGUGUUCCGCUCCGUCGAGGACCGGUACGGCCGCCACUCGACAUGAGGAUCACCCAUGUGCGAGCGCGCG [#1 Exclusion - Tryptophan A Attempt #8 (HarryS)]	19.2 nM
AGCCACUCGAGUGAUCCUCACGAGUGGCUACGAGGACCGGUACGGCCGCCACUCGAAUCAACAUGAGGAUCACCCAUGUAAUAAU [Brourdmod02]	54.8 nM
GGUUGGUGUAGAGAUAUAUUGAUUACUGAAGGAGCGGGAACAAACCCAGGUAGGUCGCAGAGAUCCACAUGAGGAUCACCCAUGU [!0.N]	41.5 nM
GUAAAGUAAAGAAGGAGCGUCGAAAAUGGGUAAACAUGAGGAUCACCCAUGUAAAGGGAACGACAGGUAGGUCGCUUUAUUUUAC [AstromonsSSArgB#17]	189 nM
GGGCGAGUGGACCGGCGUGCUCCGCUCCGUCGAGGACCGGUACGGCCGCCACUCGACAUGAGGAUCACCCAUGUGCGAGCUCGCG [#1 Exclusion - Tryptophan A Attempt #14 (HarryS)]	86 nM
GGCGUGGUCGGAAGGAGCGACAUGAGGAUCACCCAUGUCUCCCGUUAUGGGAGUUCCUUAGGUCAGGUAGGUCGCCGACUGCGGC [#1 Exclusion - Arginine B Attempt #22 (Inspired by Omei)]	159 nM
AAACGUUGCUGCGAUACCAGACAUGAGGAUCACCCAUGUACCAAGGUAAGAAAAUAACAUGUCCCUUGGCAGCGCAGCAACGAAA [MAT - Exclusion Theophlline B - Mod of Eli - D3]	15.6 nM
ACAUGAGGAUCACCCAUGUGGCGUCUUGAUACCAGACGAGAAGUAGUCCCUUGGCAGCAAAUACAUGAGGAUCACCCAUGUAGGA [cccmullin]	24.3 nM
UCGUGGUCCGCAAGGACCGGGAGUUGCGAUACCAGCACGGUAACGUGCCCUUGGCAGCGCACAUGAGGAUCACCCAUGUGGUGUU [#1 Exclusion - Theophylline A Attempt #14 (HarryS)]	174 nM
UCACUCCUGAUGGAUACCAGUUACUAACGCAACAUGAGGAUCACCCAUGUGAACACUCAGAACCCUUGGCAGCCAGGAGAACGAA [theeternabot_sameState_MS2_Theo_B_30]	53.8 nM
